In article PMC10786891, “Massively parallel profiling of RNA-targeting CRISPR-Cas13d”:

Molecular target: T1, EsCas13d, nuclease-dead (Eubacterium siraeum, UniProt B0MS50, R295A;H300A;R849A;H854A)
T1 sequence: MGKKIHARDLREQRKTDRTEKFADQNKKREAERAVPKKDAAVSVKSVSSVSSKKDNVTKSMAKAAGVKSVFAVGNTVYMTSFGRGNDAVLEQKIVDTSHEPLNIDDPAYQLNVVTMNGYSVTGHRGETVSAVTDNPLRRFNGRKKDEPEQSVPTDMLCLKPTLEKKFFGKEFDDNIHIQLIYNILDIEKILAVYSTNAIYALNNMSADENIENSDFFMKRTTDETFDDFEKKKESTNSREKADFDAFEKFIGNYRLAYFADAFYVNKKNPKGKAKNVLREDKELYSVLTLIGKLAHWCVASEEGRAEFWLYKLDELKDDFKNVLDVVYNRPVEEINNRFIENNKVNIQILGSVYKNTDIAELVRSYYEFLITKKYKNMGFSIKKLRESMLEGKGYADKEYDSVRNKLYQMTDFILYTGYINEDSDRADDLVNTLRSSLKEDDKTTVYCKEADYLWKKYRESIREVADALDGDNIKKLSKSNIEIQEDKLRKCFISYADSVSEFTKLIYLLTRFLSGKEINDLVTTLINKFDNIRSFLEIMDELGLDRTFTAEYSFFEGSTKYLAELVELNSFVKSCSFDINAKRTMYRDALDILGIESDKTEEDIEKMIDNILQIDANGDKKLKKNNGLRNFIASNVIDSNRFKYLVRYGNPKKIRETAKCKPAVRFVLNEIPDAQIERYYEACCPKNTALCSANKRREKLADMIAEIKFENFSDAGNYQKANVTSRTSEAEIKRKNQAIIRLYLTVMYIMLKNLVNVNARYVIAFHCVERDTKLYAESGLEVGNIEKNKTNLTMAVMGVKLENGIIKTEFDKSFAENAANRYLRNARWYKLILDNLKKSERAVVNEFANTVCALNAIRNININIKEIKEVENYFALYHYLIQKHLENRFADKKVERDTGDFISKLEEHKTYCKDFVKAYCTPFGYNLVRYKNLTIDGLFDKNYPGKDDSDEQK
Assay: crRNA (strand 1, pre-loaded); Mg2+; 40 mM Tris-HCl pH 7.5, 150 mM NaCl, 6 mM MgCl2, 1 mM DTT, 0.1% Tween-20, 0.2 mg/ml BSA; 25 C; 10 min per concentration, then washed
Conditions: tags: His6-TwinStrep-SUMO cleaved; N-terminal SNAP kept (SNAP-Surface 488); label: 3' end held by stalled T7 RNA polymerase

B1: target 2 MT 5'PFS AGC 3'PFS UGC (mixed)
RNA 1: CACCCGUGCAAAAUUGCAGGGGUCUAAAACCUUCUCCAAAUUGUUUCAUCCU
RNA 2: GGGAAUGGAUCCACAUCUACGAAUUCAGCAGGAUGAAACAAUUUGGAGAAGUGCAGAUCGGAAGAGCACACGU
Kd: 8.2 ± 1.4 nM

B2: target 2 MT 5'PFS GUU 3'PFS AAG (mixed)
RNA 1: CACCCGUGCAAAAUUGCAGGGGUCUAAAACCUUCUCCAAAUUGUUUCAUCCU
RNA 2: GGGAAUGGAUCCACAUCUACGAAUUCGUUAGGAUGAAACAAUUUGGAGAAGAAGAGAUCGGAAGAGCACACGU
Kd: 9.3 ± 0.8 nM

B3: target 2 MT 5'PFS UAU 3'PFS UGA (mixed)
RNA 1: CACCCGUGCAAAAUUGCAGGGGUCUAAAACCUUCUCCAAAUUGUUUCAUCCU
RNA 2: GGGAAUGGAUCCACAUCUACGAAUUCUAUAGGAUGAAACAAUUUGGAGAAGUGAAGAUCGGAAGAGCACACGU
Kd: 37 ± 9 nM

B4: target 2 MT 5'PFS AGA 3'PFS AAG (mixed)
RNA 1: CACCCGUGCAAAAUUGCAGGGGUCUAAAACCUUCUCCAAAUUGUUUCAUCCU
RNA 2: GGGAAUGGAUCCACAUCUACGAAUUCAGAAGGAUGAAACAAUUUGGAGAAGAAGAGAUCGGAAGAGCACACGU
Kd: 7.1 ± 1.3 nM

B5: target 2 MT 5'PFS AGC 3'PFS CGA (mixed)
RNA 1: CACCCGUGCAAAAUUGCAGGGGUCUAAAACCUUCUCCAAAUUGUUUCAUCCU
RNA 2: GGGAAUGGAUCCACAUCUACGAAUUCAGCAGGAUGAAACAAUUUGGAGAAGCGAAGAUCGGAAGAGCACACGU
Kd: 15 ± 5 nM

B6: target 2 MT 5'PFS AGC 3'PFS CGG (mixed)
RNA 1: CACCCGUGCAAAAUUGCAGGGGUCUAAAACCUUCUCCAAAUUGUUUCAUCCU
RNA 2: GGGAAUGGAUCCACAUCUACGAAUUCAGCAGGAUGAAACAAUUUGGAGAAGCGGAGAUCGGAAGAGCACACGU
Kd: 5.8 ± 1 nM

B7: target 2 MT 5'PFS AGA 3'PFS AAA (mixed)
RNA 1: CACCCGUGCAAAAUUGCAGGGGUCUAAAACCUUCUCCAAAUUGUUUCAUCCU
RNA 2: GGGAAUGGAUCCACAUCUACGAAUUCAGAAGGAUGAAACAAUUUGGAGAAGAAAAGAUCGGAAGAGCACACGU
Kd: 4.5 ± 1.2 nM

B8: target 2 MT 5'PFS CAU 3'PFS AGC (mixed)
RNA 1: CACCCGUGCAAAAUUGCAGGGGUCUAAAACCUUCUCCAAAUUGUUUCAUCCU
RNA 2: GGGAAUGGAUCCACAUCUACGAAUUCCAUAGGAUGAAACAAUUUGGAGAAGAGCAGAUCGGAAGAGCACACGU
Kd: 3 ± 0.4 nM

B9: target 2 MT 5'PFS CUU 3'PFS ACG (mixed)
RNA 1: CACCCGUGCAAAAUUGCAGGGGUCUAAAACCUUCUCCAAAUUGUUUCAUCCU
RNA 2: GGGAAUGGAUCCACAUCUACGAAUUCCUUAGGAUGAAACAAUUUGGAGAAGACGAGAUCGGAAGAGCACACGU
Kd: 4.4 ± 0.5 nM

B10: target 2 MT 5'PFS AGC 3'PFS CGC (mixed)
RNA 1: CACCCGUGCAAAAUUGCAGGGGUCUAAAACCUUCUCCAAAUUGUUUCAUCCU
RNA 2: GGGAAUGGAUCCACAUCUACGAAUUCAGCAGGAUGAAACAAUUUGGAGAAGCGCAGAUCGGAAGAGCACACGU
Kd: 7.5 ± 0.7 nM

B11: target 2 MT 5'PFS UCU 3'PFS UGA (mixed)
RNA 1: CACCCGUGCAAAAUUGCAGGGGUCUAAAACCUUCUCCAAAUUGUUUCAUCCU
RNA 2: GGGAAUGGAUCCACAUCUACGAAUUCUCUAGGAUGAAACAAUUUGGAGAAGUGAAGAUCGGAAGAGCACACGU
Kd: 14.5 ± 3.5 nM

B12: target 2 MT 5'PFS GUC 3'PFS CAU (mixed)
RNA 1: CACCCGUGCAAAAUUGCAGGGGUCUAAAACCUUCUCCAAAUUGUUUCAUCCU
RNA 2: GGGAAUGGAUCCACAUCUACGAAUUCGUCAGGAUGAAACAAUUUGGAGAAGCAUAGAUCGGAAGAGCACACGU
Kd: 10.3 ± 1.4 nM

B13: target 2 MT 5'PFS UGU 3'PFS CAG (mixed)
RNA 1: CACCCGUGCAAAAUUGCAGGGGUCUAAAACCUUCUCCAAAUUGUUUCAUCCU
RNA 2: GGGAAUGGAUCCACAUCUACGAAUUCUGUAGGAUGAAACAAUUUGGAGAAGCAGAGAUCGGAAGAGCACACGU
Kd: 9 ± 0.9 nM

B14: target 2 MT 5'PFS CUU 3'PFS ACC (mixed)
RNA 1: CACCCGUGCAAAAUUGCAGGGGUCUAAAACCUUCUCCAAAUUGUUUCAUCCU
RNA 2: GGGAAUGGAUCCACAUCUACGAAUUCCUUAGGAUGAAACAAUUUGGAGAAGACCAGAUCGGAAGAGCACACGU
Kd: 10.5 ± 2.2 nM

B15: target 2 MT 5'PFS UCU 3'PFS UGC (mixed)
RNA 1: CACCCGUGCAAAAUUGCAGGGGUCUAAAACCUUCUCCAAAUUGUUUCAUCCU
RNA 2: GGGAAUGGAUCCACAUCUACGAAUUCUCUAGGAUGAAACAAUUUGGAGAAGUGCAGAUCGGAAGAGCACACGU
Kd: 11.7 ± 2.1 nM

B16: target 2 MT 5'PFS CAU 3'PFS AGA (mixed)
RNA 1: CACCCGUGCAAAAUUGCAGGGGUCUAAAACCUUCUCCAAAUUGUUUCAUCCU
RNA 2: GGGAAUGGAUCCACAUCUACGAAUUCCAUAGGAUGAAACAAUUUGGAGAAGAGAAGAUCGGAAGAGCACACGU
Kd: 2.8 ± 0.6 nM

B17: target 2 MT 5'PFS UAU 3'PFS UGC (mixed)
RNA 1: CACCCGUGCAAAAUUGCAGGGGUCUAAAACCUUCUCCAAAUUGUUUCAUCCU
RNA 2: GGGAAUGGAUCCACAUCUACGAAUUCUAUAGGAUGAAACAAUUUGGAGAAGUGCAGAUCGGAAGAGCACACGU
Kd: 30 ± 6 nM

B18: target 2 MT 5'PFS UAU 3'PFS UGU (mixed)
RNA 1: CACCCGUGCAAAAUUGCAGGGGUCUAAAACCUUCUCCAAAUUGUUUCAUCCU
RNA 2: GGGAAUGGAUCCACAUCUACGAAUUCUAUAGGAUGAAACAAUUUGGAGAAGUGUAGAUCGGAAGAGCACACGU
Kd: 29.1 ± 3.4 nM

B19: target 2 MT 5'PFS CUU 3'PFS ACA (mixed)
RNA 1: CACCCGUGCAAAAUUGCAGGGGUCUAAAACCUUCUCCAAAUUGUUUCAUCCU
RNA 2: GGGAAUGGAUCCACAUCUACGAAUUCCUUAGGAUGAAACAAUUUGGAGAAGACAAGAUCGGAAGAGCACACGU
Kd: 4.9 ± 0.6 nM

B20: target 2 MT 5'PFS CUU 3'PFS ACU (mixed)
RNA 1: CACCCGUGCAAAAUUGCAGGGGUCUAAAACCUUCUCCAAAUUGUUUCAUCCU
RNA 2: GGGAAUGGAUCCACAUCUACGAAUUCCUUAGGAUGAAACAAUUUGGAGAAGACUAGAUCGGAAGAGCACACGU
Kd: 6.3 ± 0.9 nM

B21: target 2 MT 5'PFS UGU 3'PFS CAC (mixed)
RNA 1: CACCCGUGCAAAAUUGCAGGGGUCUAAAACCUUCUCCAAAUUGUUUCAUCCU
RNA 2: GGGAAUGGAUCCACAUCUACGAAUUCUGUAGGAUGAAACAAUUUGGAGAAGCACAGAUCGGAAGAGCACACGU
Kd: 16 ± 2.5 nM

B22: target 2 MT 5'PFS AGA 3'PFS AAC (mixed)
RNA 1: CACCCGUGCAAAAUUGCAGGGGUCUAAAACCUUCUCCAAAUUGUUUCAUCCU
RNA 2: GGGAAUGGAUCCACAUCUACGAAUUCAGAAGGAUGAAACAAUUUGGAGAAGAACAGAUCGGAAGAGCACACGU
Kd: 5.8 ± 1 nM

B23: target 1 insU 3' of 22,insA 3' of 4 (mixed)
RNA 1: CACCCGUGCAAAAAUGCAGGGGUCUAAAACUGAGCGGAUAACCUCUCUAUGG
RNA 2: GGGAAUGGAUCCACAUCUACGAAUUCGUACUCAUAGAGAGGUUAUCCGCAUCACCGAGAUCGGAAGAGCACACGU
Kd: 23 ± 1.9 nM

B24: target 1 A9C,A16C (mixed)
RNA 1: CACCCGUGCAAAAAUGCAGGGGUCUAAAACUGAGCGGAUAACCUCUCUAUGG
RNA 2: GGGAAUGGAUCCACAUCUACGAAUUCGUACCAUAGCGAGGUUCUCCGCUCACCGAGAUCGGAAGAGCACACGU
Kd: 86 ± 16 nM
